± gives the uncertainty stated by the source.
Assay: amyloid nucleation score (Sup35N fusion, yeast selection) (log enrichment); library NNK3; higher = more nucleation; inactive = no reads after selection
In short: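 Three technical output replicates were used for random libraries. Psi-negative yeast expressing peptides of 20 random codons fused to Sup35N were induced with 100 μM copper sulfate for 24 hours and grown 7 days at 30°C on medium lacking adenine and uracil, and input and output plasmid inserts were Illumina-sequenced, excluding sequences with under 100 input reads. The nucleation score is the DiMSum log enrichment of output over input reads, centred on the mode score of non-aggregating sequences.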

Substance | amyloid nucleation score
DNYMRILGLSYPGDFISNFW | inactive
DPIYVANARNHRLS | inactive
DPKTSYNADLAIGSCLLIDF | inactive
DPSNACPWGR | inactive
DPTSLGRQRLTRDKIPQNWS | inactive
DPVNLRC | inactive
DQEVC | inactive
DQIYSECLV | inactive
DQYLTVSHKTTTFRMCPQSG | inactive
DRCNVGRYLG | inactive
DRFLLFFH | inactive
DRGFGYGSITKGINA | inactive
DRNEQCDSL | inactive
DRRYEGGRKVQSYTVARPWS | inactive
DRSIS | inactive
DRYDSVYEDGLLLLMFFDHV | inactive
DSADVMIAYASVVVVTIECC | inactive
DSCTEVFVKGVTRSVIVGKG | inactive
DSFSTDCVFYEIMCSEVRLA | inactive
DSHFKVYVPRQLREAREPVK | inactive
DSLRWDYRL | inactive
DSMCRYV | 0.893 ± 0.12
DSNGYKEGVDQNSGAKNTNK | inactive

Substance | amyloid nucleation score
DSQLFKICGLVCTTYVALCF | -0.732 ± 0.59
DSRLSAEYMVRMGKVYIDDS | inactive
DSSMIDRAENAH | inactive
DSVMVYIRFIAMSSPQKG | inactive
DSYCGLRDEWITRWLGCRWM | inactive
DTLYIASYEAVSGLRSPYER | inactive
DTRGTARKPKSLSTRLEIRV | inactive
DTYMISNVAGNSRYALHGFV | inactive
DVDFPSFAGFMVTISIGIFV | inactive
DVDRTSCGGVSVRV | inactive
DVLLARCYNCLSAFRLNSLC | inactive
DVNFSLC | -0.002 ± 0.32
DVNGR | inactive
DVYSYKFDR | inactive
DWEARCCREVTGNGVFESQK | inactive
DWRLRSFICRAVVVCCINGD | 1.54 ± 0.077
DWRQVYAYENSLWTVFSVWD | inactive
DWTWMMS | inactive
DYGMLCSLLSGDISNSEVGI | inactive
DYIRRWLVYAYDKVFCRLTV | inactive
DYISPYCS | inactive
DYRTH | inactive
DYTMVKLLIGLSGIRTPVVR | inactive

Substance | amyloid nucleation score
DYVAGN | inactive
EAKMMRDLSVLVGMPYIMTN | inactive
EALLSSLIIFIDQRGVCEFV | inactive
EAVSDLNVGPAVRCGG | inactive
ECDHSCGRWNWIN | inactive
ECLMDGSTAFSMMFFYNYML | inactive
ECYMVCFDSCSNIMFVLDLE | 1.92 ± 0.095
EDCRSR | inactive
EDLNPSSVLYRPSIDFM | inactive
EDRSHVAYTFFSALAQVT | inactive
EEGATVRTPLATRPGRTLK | inactive
EFATLAEPDVIYYFLVFYCS | inactive
EFHCSYLVIWYG | inactive
EFIALSVFLLNFVSCLWSNV | inactive
EFLGFCFPIAGYFLKDEKIG | inactive
EFPASNLSMLGWN | inactive
EGARSGKENGSGKPYRPLGV | 0.528 ± 0.22
EGFFYCCHFFRLYYNVVVLL | 2.02 ± 0.064
EGGCYSPKHG | 0.741 ± 0.28
EGKIHNSRLGYFQRRLIVS | inactive
EGPNTVNCPTAS | inactive
EGRFLKLFWSGSL | -0.108 ± 0.51
EGSEGSDMSRTFFYICYFIL | inactive

Substance | amyloid nucleation score
EGSSSLYCSELRFV | inactive
EHEFYTKDNFLRGIFYNTNL | inactive
EILVVVPIAGEMSIVFMRGW | inactive
EIMGICTLTVIFCKC | 1.58 ± 0.1
EISSVAAYGSN | inactive
EIVTRERIPEWYSLLLMGLP | inactive
EKFMPHTELLNVWGLRQILM | inactive
ELAHKIMAM | inactive
ELGMQSNGSSNDRLERRRIR | inactive
ELIKCFFYYNDVGV | inactive
ELLKPCNVCYRWYNTHALLV | 0.724 ± 0.18
ELRTNYRKLLSSQAEVGCMV | inactive
ELSANTSFTNSHMTMTTKLF | inactive
ELVQKGHGIEWERHGVLFGE | inactive
EMAEAGTFEGYSLSVSVSAD | inactive
EMCRN | inactive
EMLKVLVHS | inactive
EMMLWSFNREFMTFYTRSVD | inactive
ENMIRFLRDSLCGSFYNLPL | inactive
ENPVSCKAIYYTVSIITSFS | inactive
ENSGWSKRVFSSFFMIAMMY | inactive
EPESTRMGLSTTILPVFRCL | -0.158 ± 0.83
EQSTRKGNR | inactive

Substance | amyloid nucleation score
ERARAAWSNGKAGLLWSGPG | inactive
ERIIFYCNRVRRMLYGGLVR | inactive
ERQVYMVLGSICRKPTMERS | -1.05 ± 1.9
ERVKWDKRMHPVDHWHVTVS | inactive
ERVTRSMWTVGKRYRTGK | inactive
ESCRWLLVFKMVCWQ | inactive
ESDFRLYSCFDWNVVAMNYR | 1.44 ± 0.074
ESIVVRF | inactive
ESLATNQVDMFSLSVRIFGP | inactive
ESLEMVWPRAMR | inactive
ESNGVSGPAQMERDTVPEVP | inactive
ESSRRYEVCCLMW | inactive
ESVSNSYVQTKWEYQLC | inactive
ETESATQPVTVIGVSELIRL | inactive
ETGYKCAKGFYRCTGRGMVW | inactive
ETKSCWQL | inactive
ETMVIDWCSTVDRVR | inactive
ETYYFSVGFFY | inactive
EVGCV | 0.76 ± 0.14
EVLLFVFKEGTHLVGLW | inactive
EVLYR | inactive
EVSFDNLRGWH | inactive
EVSGYINMR | inactive

Substance | amyloid nucleation score
EVSLFVTHIL | inactive
EVVGVYRERMSSFLLQGVLL | -0.042 ± 0.98
EVYFKMAQPLLHWDYERMQV | inactive
EWKVLYFFGDAFRLFNRWSG | inactive
EWVALNSSYLWYCPVM | inactive
EWVANPSFGYAEWLLV | inactive
EYLLSSMRLSVILSAWYARC | inactive
EYPFFIKSQGR | inactive
EYSVRADPGREMNGEISAWV | inactive
FACFAVIILHVIMYVRMSSV | inactive
FACRVGGEHGGV | inactive
FAGCTVGLTNYKRLWICVN | 0.092 ± 0.72
FAGDLRDCWFLSFV | inactive
FAISSILSMDAPGLDQIDRF | inactive
FARVSVESRGGNVTFACLCI | 1.73 ± 0.12
FATVDDMSTGFRYIFLITRA | inactive
FAVDFLCHVS | inactive
FCATRTKVGLHGYASCEDCG | -0.249 ± 0.48
FCEPDWNEMGMDFVRCGPSL | inactive
FCFQAFF | inactive
FCGGVAFMMVNVERVRTRRE | 1.39 ± 0.15
FCKMVFLGTAVRCVVKLQSV | inactive
FCLMHRRWMVVCACIYRWLK | inactive

Substance | amyloid nucleation score
FCLPICFD | inactive
FCMGLHSWNSNGRFCAVCTY | inactive
FCRIAVMFKSNQELYRMDNG | inactive
FCRQCNIVLFDQSVSL | 1.87 ± 0.11
FCTVNH | inactive
FCYGSFGGLRELYCC | inactive
FDFESRKLVVGICGCSQAGL | inactive
FDIIVQITYHVWNMNVHF | 0.932 ± 0.1
FDLGGLLPL | inactive
FDNFADNRLNKVSYKYQT | 1.27 ± 0.12
FDNKQGSFLKVLTFNFARVA | inactive
FDSLFYCGYTYHYQVARKFR | inactive
FDTVVLCWVIGIRIGPHNAL | inactive
FEIECNNGSGASTRLTSRIN | inactive
FEMPLMWYCGGFYSSPLLCK | inactive
FEYEKMLKAYGEGVIGSWLF | inactive
FEYLSMYELGISVE | inactive
FEYLSMYELGISVMSTAH | inactive
FFAILHLRVNARMCYGNGAY | 0.435 ± 0.48
FFALPDLALYNFFFCNPHYL | 2.27 ± 0.064
FFASRENPSFHFVSFWTYTW | inactive
FFERSR | inactive
